One protein from paper doi:10.1101/2024.06.20.599867 (bioRxiv, 2024) can be followed below.

The data set concerns the molecule itself. The experiment in a line: cryo-EM structure.

B1: ABC transporter MsbA (His-tagged, E. coli) (natural protein)
chain: MHNDKDLSTWQTFRRLWPTIAPFKAGLIVAGVALILNAASDTFMLSLLKPLLDDGFGKTDRSVLVWMPLVVIGLMILRGITSYVSSYCISWVSGKVVMTMRRRLFGHMMGMPVSFFDKQSTGTLLSRITYDSEQVASSSSGALITVVREGASIIGLFIMMFYYSWQLSIILIVLAPIVSIAIRVVSKRFRNISKNMQNTMGQVTTSAEQMLKGHKEVLIFGGQEVETKRFDKVSNRMRLQGMKMVSASSISDPIIQLIASLALAFVLYAASFPSVMDSLTAGTITVVFSSMIALMRPLKSLTNVNAQFQRGMAACQTLFTILDSEQEKDEGKRVIERATGDVEFRNVTFTYPGRDVPALRNINLKIPAGKTVALVGRSGSGKSTIASLITRFYDIDEGEILMDGHDLREYTLASLRNQVALVSQNVHLFNDTVANNIAYARTEQYSREQIEEAARMAYAMDFINKMDNGLDTVIGENGVLLSGGQRQRIAIARALLRDSPILILDEATSALDTESERAIQAALDELQKNRTSLVIAHRLSTIEKADEIVVVEDGVIVERGTHNDLLEHRGVYAQLHKMQFGQ
For the protein B1, the binding result is recorded as “binds”.
